Results: patent US20150104459A1 (published 2015)

B1: TCN-554 (5277_M05) (antibody, V domains shown)
VH: QVQLVQSGADLKKPGASVKVSCKASGYTFTDYYIHWVRQAPGQGLEWMGWINPESGDTKYAQKFQGRVTMTRDTSITTAYMELGRLRSDDTAVYYCARDVSTTWSWFAPWGQGTLVTVSS
VL: DIVMTQSPDSLAVSLGERATINCRSSQSIFHNSNNENYLAWYQQKPGQPPKLLIYWASTRESGVPDRFSGSGSGTDFTLTISSLQAEDVAVYFCQQYYNAPLTFGGGTKVEIK
B2: TCN-534 (5249_B02) (antibody, V domains shown)
VH: QVQLVQSGAEVKKPGSSVKVSCRESGGTFNGYTITWVRQAPGQGLEWMGGIIPMMGTVNYAQKLQGRVTITTDYFTKTAYMDLNNLRSEDTAMYYCVKIRYTGQQLLWGQGTLVTVSS
VL: DIQMTQSPSTLSASIGDRVTITCRASQSIASWLAWYQQKPGKAPKLLIYEAVNLESGVPSRFSGSGSGTDFTLTISSLQPDDFATYFCQHYGTISQTFGGGTKVEIK
B3: TCN-544 (5082_A19) (antibody, V domains shown)
VH: QVQLQESGPGLVKPSETLSLTCTVSRGSIGHYFWSWIRQPPGKGLEWIGYISYSGSTKYNPSLRSRVTISVDTSKNQFSLNLNSVTATDTALYYCAREDYDILTGAGPGMEVWGQGTTVTVSS
VL: QSMLTQPPSASGTPGQRVTISCSGSSSNIGSNTVNWFKHLPGTAPKLLIYRNDLRPSGVPDRFSGSKSGTSASLAISGLQSEDEADYYCATWDDSLNGFYVFGTGTKVTVL
B4: TCN-539 (5056_A08) (antibody, V domains shown)
VH: QVQLVESGGGVVQPGRSLRLSCAASEITFITYAMHWVRQAPGKGLEWVALISDDGSNKFYADSVKGRFTISRDNSKNTLYLQMNSLRAEDTAAYYCAREGVYFDSGTYRGYFDYWGQETLVTVSS
VL: EIVLTQSPATLSLSPGERATLSCRASQSVSSYLAWYQQKPGQAPRLLIYDASNRATGIPARFSGSGSGTDFTLTISSLEPEDFAVYYCQQRSHWPPITFGQGTRLEIK
B5: TCN-535 (5246_P19) (antibody, V domains shown)
VH: QVQLVQSGSEVKKPGTSVKVSCTASGSVFTNYGISWVRQAPGQGLEWMGGIIPLFGAAKYAQKFQGRVTITADESTKTVYMELSRLTSKDTAIYFCAKAPRVYEYYFDQWGQGTPVTVSS
VL: EIVLTQSPGTLSLSPGERATLSCRASQSVSSSQLAWYQQKPGQAPRLIIYGASTRATGIPDRFSGSGSGTDFTLTIGRLEPEDFAVFFCQQYSTSPPTFGQGTKVDFK
B6: TCN-550 (5096_F06) (antibody, V domains shown)
VH: QVQLQESGPGLVKPSETLSLTCTVSGASINSHYWSWIRQPPGKGLEWIGYVYYSGSTTYNPSLKSRVTLSVDTSKNQFSLNLSSVTAADTAFYYCARHPYDVLTGSGDWFDPWGQGTLVTVSS
VL: SYVLTQAPSVSVAPGQTARITCGGNAIGSKKVHWYQHKAGQAPVLVVYDDTDRPSGIPERFSGSNSWSTATLTINRVEAGDEADYYCQVWDFTIDHVVFGGGTKLTVL
B7: TCN-536 (5095_N01) (antibody, V domains shown)
VH: QVQLQQWGAGLLKPSETLSLTCAVYGGSFSVSGYYWSWIRQPPGRGLEWIGEISHGGSTNYNPSLKSRVTISVDTTKNQFSLRLSSVTAADTAVYYCARGTDPDTEVYCRVGNCAAFDYWGQGSLVTVSS
VL: EIILAQSPGTLSLSPGERATLSCRASQFVSTRSLAWYQQRPGQAPRLLIYGASSRATGIPDRFSGSGSGTDFTLTISRLEPEDFAVYYCQHYGYSPRYAFGQGSKVEIK
B8: TCN-560 (5084_P10) (antibody, V domains shown)
VH: EVQLVESGGGLVQPGGSLRLSCAASGFIFRNYWMSWVRQAPGKGLEWVANIKQDGREKYYVDSLRGRVNISRDNAENSLYLHMNSLRVEDTAVYFCARARMVVVTGDGFDVWGHGTMVTVSS
VL: DIQMTQSPSSLSASVGDRVTITCRASQNIKRYFNWYQQKPGKAPKLLIYAASNLENGVPSRFSGSGSGTDFTLTISSLQPEDFATYYCQQSFSKSWTFGQGTNVDIK
B9: TCN-554 (5277_M05) (antibody, V domains shown)
VH: QVQLVQSGADLKKPGASVKVSCKASGYTFTDYYIHWVRQAPGQGLEWMGWINPESGDTKYAQKFQGRVTMTRDTSITTAYMELGRLRSDDTAVYYCARDVSTTWSWFAPWGQGTLVTVSS
VL: DIVMTQSPDSLAVSLGERATINCRSSQSIFHNSNNENYLAWYQQKPGQPPKLLIYWASTRESGVPDRFSGSGSGTDFTLTISSLQAEDVAVYFCQQYYNAPLTFGGGTKVEIK
B10: TCN-523 (5248_A17) (antibody, V domains shown)
VH: QVQLVQSGAEVKKPGSSVKVSCKASGGSFSNYAFSWVRQAPGQGLEWMGGTIPLLGTTNYAQKFQGRVTISADQFTSTAYMELGSLRSEDTAVYYCTRRKMTTAFDSWGQGTLVTVSS
VL: QPVLTQPPSASASLGASVTLTCTLSSAYSNYKVDWYQQRPGKGPRFVMRVGTGGIVGSKGDGIPDRFSVLGSGLNRYLTIKNIQEEDESDYHCGADHGSGSNFVSPYVFGGGTKLTVL
B11: TCN-552 (5249_I23) (antibody, V domains shown)
VH: QVQVVQSGAEVKKPGSSVRVSCQASGGTFMNYAIIWVRRAPGQGLEWMGGIIPVFPTPNYAQMFQGRVTISTDESRSTSFLELTNLRYEDTAVYYCARRIYHGGNSGFDFWGQGTLVTVSS
VL: EIVLTQSPATLSLSPGERATLSCRASQSVGNYLAWYQQKPGQAPRLLIYDSSNRAPGIPARFSGSGSGTDFTLTISSLAPEDFAVYYCQQRSKWPPMYSFGHGTKLEIK
B12: TCN-555 (5246_L16) (antibody, V domains shown)
VH: QVQLVQSGAEVKRPGSSVKVSCTASGGIFRKNAISWVRQAPGQGLEWMGGIIAVFNTANYAQKFQNRVKITADESGNTAYMELSSLTSDDTAVYYCASHPKYFYGSGSYPDFWGQGTLVTVSS
VL: QSALTQPRSVSGSPGQSITISCTGGSSDIGASNSVSWYQQHPGKAPKLVIFDVTERPSGVPHRFSGSKSGNTASLTVSGLQPDDEADYFCCAYGGKYLVVFGGGTKVTVL
B13: TCN-563 (5237_B21) (antibody, V domains shown)
VH: QVQLAQSGAEVKRPGSSVKVSCTASGGIFRKNAISWVRQAPGQGLEWMGGIIAVFNTANYAQKFQGRVKITADESGNTAYMELSSLRSDDTAVYYCASHPKYFYGSGSYPDFWGQGTLVTVSS
VL: QSALTQPRSVSGSPGQSVTISCTGSSSDVGASNSVSWYQQHPGKAPKLVIYDVTERPSGVPHRFSGSKSGNTASLTVSGLQPEDEADYFCCAYGGKYLVVFGGGTKVTVL
B14: TCN-553 (5261_C18) (antibody, V domains shown)
VH: QVQVVQSGTEVKKPGSSVKVSCQTSGGRFMSYAITWVRQAPGQGLEWMGGIVPVFGTANYAQKFQGRVTITTDDSTRTAYMELSSLRSEDTAVYYCGFRYGSGYGFDSWGQGTLVTVSS
VL: EIVLTQSPGTLSLSPGERATLSCRASQSVSSSYLAWYQKKPGQAPRLLIYGASTRATGIPDRFTGSGSGTDFTLSISRLEPEDFAVYYCQHFGTSVFTFGGGTKVEIK
B15: TCN-551 (5243_D01) (antibody, V domains shown)
VH: EVQLVQSGSEVKKPGESLKISCKGSGYSFSNYWIGWVRHMPGKGLEWMGIIYPGDSDTRYSPSFQGQVTMSADKSSSTVYLQWSSLKASDTAIYYCARRGGHSFGYGSGGDTHSEFDSWGQGTLVTVSS
VL: QSVLTQSPSVSAAPGQKVTISCSGSDSNIGDYFVCWYQHLPGKPPQLLIYENNKRPSGIPDRFSGSKSGTSATLGITGIQTGDEADYYCATWDGSLSAWVFGGGTKLTVL

The binders below were run against hemagglutinin (HA) of live influenza A/Wisconsin/67/05 (H3N2) virus (influenza A virus A/Wisconsin/67/2005 …) (assay: cell-based or functional assay).

Binder	% Neutralization
B1	100%
B2	0%
B3	97%
B4	99%
B5	0%
B6	100%
B7	99.9%

Each binder was assayed against hemagglutinin (HA) of live influenza A/Solomon Islands/3/06 (H1N1) virus (influenza A virus A/Solomon …) (assay: cell-based or functional assay).

Binder	% Neutralization
B2	65.7%
B5	88.6%
B7	81.6%

These binders were tested against Hemagglutinin of influenza A/Solomon Islands/3/06 (H1N1) on whole virions (Influenza A virus A/Solomon …) (assay: cell-based or functional assay).

Binder	% Neutralization
B8	94%
B9	42%
B10	69%
B11	57%
B12	48%
B13	78%
B14	87%
B15	100%
